Experiments:
Assay type in all cases: cell-based
GR = molecular target: T1, GR (Homo sapiens, UniProt P04150); test: GR transactivation reporter assay with SV; parameters: expressed in transfected cells; host or cells: DU145, PC-3, HepG2; settings: MMTV-Luc; compared to AR
T1 sequence (P04150 1-777): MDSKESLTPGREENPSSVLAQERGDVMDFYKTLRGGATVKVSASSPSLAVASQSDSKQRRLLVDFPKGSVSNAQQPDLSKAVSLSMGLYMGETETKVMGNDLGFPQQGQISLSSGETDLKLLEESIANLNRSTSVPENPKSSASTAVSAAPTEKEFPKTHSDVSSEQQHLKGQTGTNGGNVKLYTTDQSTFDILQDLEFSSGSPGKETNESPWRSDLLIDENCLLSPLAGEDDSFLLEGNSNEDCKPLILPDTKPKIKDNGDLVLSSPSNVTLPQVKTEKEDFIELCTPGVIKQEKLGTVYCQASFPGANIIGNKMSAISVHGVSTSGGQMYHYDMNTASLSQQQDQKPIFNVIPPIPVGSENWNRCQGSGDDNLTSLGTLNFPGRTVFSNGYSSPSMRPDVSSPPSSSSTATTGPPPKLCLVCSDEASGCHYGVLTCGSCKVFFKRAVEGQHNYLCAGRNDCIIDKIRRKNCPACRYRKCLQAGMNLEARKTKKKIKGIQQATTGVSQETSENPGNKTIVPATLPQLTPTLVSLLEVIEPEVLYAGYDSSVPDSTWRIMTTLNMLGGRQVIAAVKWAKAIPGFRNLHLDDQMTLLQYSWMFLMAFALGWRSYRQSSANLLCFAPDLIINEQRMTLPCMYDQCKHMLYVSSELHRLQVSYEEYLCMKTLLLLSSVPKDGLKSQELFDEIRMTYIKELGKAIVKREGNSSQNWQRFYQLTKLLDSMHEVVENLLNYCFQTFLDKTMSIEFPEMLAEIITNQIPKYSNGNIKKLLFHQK
Description: (§1) 42. […] (A) The interaction of SV with AR, GR, PPAR-γ and ER-α is tested in mammalian two-hybrid assay. One μg plasmids expressing Gal4(DBD)-AR, GR, PPAR-γ or ER-α was co-transfected with 4 μg plasmids expressing VP16 or VP16-SVn to COS-1 cells. […] The assay method was the same as described in FIG. 29. Relative activities of ligand treatment to EtOH treatment are shown. (B) The coactivation function of SV in different receptors was assayed using reporter gene study. MMTV-Luc, PPRE-Luc, ERE-Luc are the reporter genes for AR, GR, PPAR-γ, and ER-α respectively. Lanes 1, 5, 9 and 13 are regarded as 1 fold in each panel.
(§2) 475. In AR transactivation activity assays, transfections were performed using SuperFect (Qiagen, Chatsworth, Calif.) following protocols described in manual provided by Qiagen. Briefly, cells were plated on 35 mm dishes and after 24 h were transfected using the SuperFect kit. The total DNA amount was adjusted to 2 μg with pSG5 or pEGFP vectors. The medium was changed to DMEM with 10% CD-FBS 2 h after transfection. After 24 h, the DMEM with 10% CD-FBS was changed again, and the cells were treated with various steroids. Cells were harvested after 24 h for dual-luciferase assay as described in protocol provided by Promega. At least three independent experiments were carried out in each case.

PPAR-γ = molecular target: T2, PPAR-γ (Homo sapiens, UniProt P37231); test: PPAR-γ transactivation reporter assay (PPRE-Luc) with SV
T2 sequence (P37231 1-505): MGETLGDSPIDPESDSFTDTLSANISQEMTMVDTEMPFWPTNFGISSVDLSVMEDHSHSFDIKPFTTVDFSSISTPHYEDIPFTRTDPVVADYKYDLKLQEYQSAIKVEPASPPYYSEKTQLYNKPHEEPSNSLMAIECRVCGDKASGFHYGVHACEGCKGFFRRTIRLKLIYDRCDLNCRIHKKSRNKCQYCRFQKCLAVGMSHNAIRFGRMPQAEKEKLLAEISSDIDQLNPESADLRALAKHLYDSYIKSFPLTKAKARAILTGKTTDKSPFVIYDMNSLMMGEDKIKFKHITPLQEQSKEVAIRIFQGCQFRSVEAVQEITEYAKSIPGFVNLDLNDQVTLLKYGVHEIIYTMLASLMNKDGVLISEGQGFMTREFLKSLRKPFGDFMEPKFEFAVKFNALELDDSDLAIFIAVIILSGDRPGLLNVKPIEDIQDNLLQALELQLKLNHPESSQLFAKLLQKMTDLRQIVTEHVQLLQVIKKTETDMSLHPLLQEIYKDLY
Description: as §1, §2

ER-α = molecular target: T3, ER-α (Homo sapiens, UniProt P03372); test: ER-α transactivation reporter assay (ERE-Luc) with SV
T3 sequence (P03372 1-595): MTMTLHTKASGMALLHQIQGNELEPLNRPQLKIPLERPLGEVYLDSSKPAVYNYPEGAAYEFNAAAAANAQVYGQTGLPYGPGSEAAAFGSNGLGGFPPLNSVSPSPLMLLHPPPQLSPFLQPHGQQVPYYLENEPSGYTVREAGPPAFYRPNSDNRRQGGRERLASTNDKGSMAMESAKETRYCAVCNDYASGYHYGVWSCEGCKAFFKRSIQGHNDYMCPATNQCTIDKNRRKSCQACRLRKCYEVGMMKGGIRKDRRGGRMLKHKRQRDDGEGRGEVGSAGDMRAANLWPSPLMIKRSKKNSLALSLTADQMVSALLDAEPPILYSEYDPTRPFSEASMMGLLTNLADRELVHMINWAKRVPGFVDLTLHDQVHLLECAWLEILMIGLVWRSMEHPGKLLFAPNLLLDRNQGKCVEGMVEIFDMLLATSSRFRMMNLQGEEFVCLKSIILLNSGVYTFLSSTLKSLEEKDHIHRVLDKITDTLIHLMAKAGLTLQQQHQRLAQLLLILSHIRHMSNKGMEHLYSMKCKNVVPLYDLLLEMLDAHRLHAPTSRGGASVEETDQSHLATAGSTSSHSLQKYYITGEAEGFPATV
Description: as §1, §2

effect on the transactivation of GR (GR): less enhancement effect
effect on the transactivation of PPAR-γ (PPAR-γ): little effect
effect on the transactivation of ER-α (ER-α): little effect
Substance: SV: supervillin, 205 kDa actin binding protein; bovine SV (a.a. 1-1792) used in reporter assays
